Source: patent publication US20210380702A1 (Regeneron, published 2021)
Positions count from the first letter of the chain named.

B1: H2aM8309N (antibody, mouse IgG2, V domains shown)
VH: not shown
VL: DIQMTQSPSSLSASVGDRVTITCRTSQGIRNDLGWYQQKPGKAPKRLIYAASSLQSGVPSRFSGSGSGTEFTLTISSLQPEDFATYYCLQHNNYPYTFGQGTKLEIK
notes: also called H2M8309N
B2: H2aM8306N (antibody, mouse IgG2, V domains shown)
VH: EVQLVESGGGLVQPGGSLRLSCAASGFTFSRFWMSWVRQAPGKGLEWVANINQDGTEKYYVDSVKGRFTISRDNAKNSLYLQMNSLRAGDTAVYYCANTYYDFWSGHFDYWGQGTLVTVSS
VL: not shown
notes: also called H2M8306N
B3: H1H9396P2 (antibody, human IgG1, V domains shown)
VH: QVQLVQSGAEVEKPGASVKVSCKASGYIFTHYGISWVRQAPGQGLEWVGWISPYNGYTDYAQKLQGRVTLTTDTSTTTAYMELRNLRSDDTAMYYCSRGRGPYWSFDLWGRGTLVTVSS
VL: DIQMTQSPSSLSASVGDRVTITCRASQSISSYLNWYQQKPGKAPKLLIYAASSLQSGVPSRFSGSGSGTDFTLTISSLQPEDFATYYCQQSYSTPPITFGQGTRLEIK
B4: H1H9382P2 (antibody, human IgG1, V domains shown)
VH: EVQLVESGGGLVQPGGSLRLSCAASGFTVGTNFMNWVRQAPGKGLEWVSAIYSGGTANYADSVKGRFTISRDTSRNTLYLQMNSLRTEDTAVYYCARGGGMDVWGQGTTVTVSS
VL: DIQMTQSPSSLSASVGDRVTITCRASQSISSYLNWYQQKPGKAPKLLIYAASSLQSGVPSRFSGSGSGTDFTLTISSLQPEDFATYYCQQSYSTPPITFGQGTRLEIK
B5: H1H9336P (antibody, human IgG1, V domains shown)
VH: EVQLVESGGGLVQPGRSLRLSCAASGFTFDDFAMHWVRQAPGKGLEWVSGISWTGGNMDYANSVKGRFTISREDAKNSLYLQMNSLRAADTALYYCVKDIRGIVATGGAFDIWGRGTMVTVSS
VL: DIQMTQSPSSLSASVGDRVTISCRASQTISTYLNWFQQKPGKAPKLLIYVVSSLQSGVPSRFSGSGSGTDFTLTISSLQPEDFATYYCQQSYSTPFTFGPGTKVDIK
B6: H2aM8310N (antibody, mouse IgG2, V domains shown)
VH: QVQLVQSGAEVKKPGASVQVSCKASGYSFTGYYIHWVRQAPGQGLEWMGWINPNSGTKKYAHKFQGRVTMTRDTSIDTAYMILSSLISDDTAVYYCARDEDWNFGSWFDSWGQGTLVTVSS
VL: DIVMTQTPLSSPVTLGQPASISCRSSQTLVHGDGNTYLSWIQQRPGQPPRLLIYKVSNQFSGVPDRFSGSGAGTDFTLKISRVEAEDVGLYFCMQATHFPITFGQGTRLEIK
notes: also called H2M8310N
B7: H1H9364P2 (antibody, human IgG1, V domains shown)
VH: EVQLVESGGGLVQPGRSLRLSCAASGFTFDDYALHWVRQAPGKGLEWVSGISWTGGTIDYADSVKGRFTISRDNAKNSLYLQMSSLRTEDTAIYYCTRDIRGNWKYGGWFDPWGQGTLVTVSS
VL: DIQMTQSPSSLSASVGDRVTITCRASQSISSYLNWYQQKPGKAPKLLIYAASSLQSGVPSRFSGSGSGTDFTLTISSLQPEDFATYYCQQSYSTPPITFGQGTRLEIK
B8: H1H9345P2 (antibody, human IgG1, V domains shown)
VH: EVQLVESGGGLVQPGGSLRLSCAASGFTISTNYMNWVRQAPGKGLEWVAVIYSSGSTYYIDSVKGRFTISRLTSKNTVYLQMSSLNSEDTAVYYCARGIRGFDIWGQGTMVTVSS
VL: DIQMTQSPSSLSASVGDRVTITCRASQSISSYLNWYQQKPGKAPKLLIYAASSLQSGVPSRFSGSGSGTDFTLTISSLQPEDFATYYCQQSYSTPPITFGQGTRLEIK
B9: H2aM8312N (antibody, mouse IgG2, V domains shown)
VH: QVHLVQSGAEVKKPGASVKVSCKASGYTFTGYYIHWVRQAPGHGLEWMGWLNPNTGTTKYIQNFQGRVTMTRDTSSSTAYMELTRLRSDDTAVYYCARDEDWNYGSWFDTWGQGTLVTVSS
VL: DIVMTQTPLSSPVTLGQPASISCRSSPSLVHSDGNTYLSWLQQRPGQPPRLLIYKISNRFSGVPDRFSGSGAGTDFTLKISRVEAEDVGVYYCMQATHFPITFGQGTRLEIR
notes: also called H2M8312N
B10: H2aM8309N (antibody, mouse IgG2, V domains shown)
VH: not shown
VL: B1 VL
notes: also called H2M8309N
B11: H1H9329P (antibody, human IgG1, V domains shown)
VH: EVQLVESGGGLVQSGGSLRLSCAASGFTFSSYWMSWVRQAPGKGLEWVANIKQDGSEKYYVDSVKGRFTISRDNAKNSLYLQMNSLRADDTAVYYCARDDIVVVPAPMGYYYYYFGMDVWGQGTTVTVSS
VL: B1 VL with T25A, N93S
B12: H2aM8323N (antibody, mouse IgG2, V domains shown)
VH: QVQLVQSGAEVKMPGSSVRVSCKASGGIFSSSTISWVRQAPGQGLEWMGEIIPVFGTVNYAQKFQDRVIFTADESTTTAYMELSSLKSGDTAVYFCARNWGLGSFYIWGQGTMVTVSS
VL: EIVLTQSPGTLSLSPGERATLSCRASQSFNFNYLAWYQQKPGQAPRLLIYGASSRATGIPDRFSGSGSGTDFTLTINRLEPEDFGVFYCQQYESAPWTFGQGTKVEIK
notes: also called H2M8323N
B13: H2aM8306N (antibody, mouse IgG2, V domains shown)
VH: B2 VH
VL: not shown
notes: also called H2M8306N
B14: H2aM8314N (antibody, mouse IgG2, V domains shown)
VH: EVQLVESGGGVVRPGGSLRLSCAASGFTFDDYGMTWVRQAPGRGLEWVSGIHWHGKRTGYADSVKGRFTISRDNAKKSLYLQMNSLKGEDTALYHCVRGGMSTGDWFDPWGQGTLVIVSS
VL: DIQMTQSPSSLSASLGDRVTITCRASQSINSYLNWYQQKPGKAPKLLIYVASSLQSGVPSRFSGSGSGTEFTLTISNLQPEDFATYYCQQSYSTPPITFGQGTRLEIK
notes: also called H2M8314N
B15: H2aM8317N (antibody, mouse IgG2, V domains shown)
VH: EVQLVESGGGLVQPGGSLRLSCAASGFTVGSNYMNWVRQAPGKGLEWVSVIYSGGSTYYADSVKGRFTISRLTSKNTLYLQMSSLRPEDTAVYYCARGIRGLDVWGQGTTVTVSS
VL: B14 VL with L15V, S28T, S31I, K42R, K45R, V50A, E70D, N77S, Q89H
notes: also called H2M8317N
B16: H2aM8321N (antibody, mouse IgG2, V domains shown)
VH: EERLVESGGDLVQPGGSLRLSCAASGITVGTNYMNWVRQAPGKGLEWVSVISSGGNTHYADSVKGRFIMSRQTSKNTLYLQMNSLETEDTAVYYCARGIRGLDVWGQGTMVTVSS
VL: B14 VL with L15V, I29M, N30S, K42R, Y49F, V50A, E70D, N77S
notes: also called H2M8321N
B17: H1H9387P2 (antibody, human IgG1, V domains shown)
VH: QVQLVQSGAEVKKPGSSVKVSCKASGGTFNTYVLSWVRQAPGQGLEWMGEIIPILGAANYAQNFQGRVTFTTDESTNTAYMDLSSLRSEDTAVYYCARDRTSGGFDPWGQGTLVTVSS
VL: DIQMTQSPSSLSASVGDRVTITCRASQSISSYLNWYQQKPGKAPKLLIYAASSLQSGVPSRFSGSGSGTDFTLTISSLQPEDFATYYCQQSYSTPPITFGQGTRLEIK
B18: H1H9354P2 (antibody, human IgG1, V domains shown)
VH: EVQLVESGGGLVQPGGSLRLSCEASGFTVGVNHMNWVRQAPGKGLEWVSVIFSSGRTFYGDYVKGRLTIFRQTSQNTVYLQMNSLRSEDTAIYYCARGIGGLDIWGRGTMVTVSS
VL: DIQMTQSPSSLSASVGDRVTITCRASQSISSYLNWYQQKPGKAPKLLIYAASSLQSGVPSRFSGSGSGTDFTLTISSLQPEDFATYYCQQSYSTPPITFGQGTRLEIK

The binders below were run against T1, recombinant cynomolgus monkey PD-L1 with a C-terminal myc-myc-hexahistidine tag (cynomolgus monkey (Macaca fascicularis)) (assay: SPR (Biacore), mAb captured, 37C).
T1 construct: also called MfPD-L1-MMH; MfPD-L1-MMH Monomer
T1 sequence (chain, as listed by the source limits assumed): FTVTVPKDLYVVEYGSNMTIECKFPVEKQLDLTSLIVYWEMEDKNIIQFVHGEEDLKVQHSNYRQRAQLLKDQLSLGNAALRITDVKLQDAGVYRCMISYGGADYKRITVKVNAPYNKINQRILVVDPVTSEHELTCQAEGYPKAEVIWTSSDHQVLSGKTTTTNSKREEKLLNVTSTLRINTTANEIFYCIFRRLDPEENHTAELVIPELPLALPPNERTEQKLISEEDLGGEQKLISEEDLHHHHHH
Protocol: (§1) Binding association and dissociation rate constants (kₐ and kd, respectively), equilibrium dissociation constants and dissociation half-lives (KD and t_{1/2}, respectively) of antigen binding to purified anti-PD-L1 monoclonal antibodies were determined using a real-time surface plasmon resonance biosensor assay on a Biacore 4000 instrument. The Biacore sensor surface was either derivatized with polyclonal rabbit anti-mouse antibody (GE, #BR-1008-38) or with monoclonal mouse anti-human Fc antibody (GE, #BR-1008-39) to capture approximately 200-300 RUs of anti-PD-L1 monoclonal antibodies, expressed with either a mouse Fc or with human Fc, respectively. […] Different concentrations of PD-L1 reagents were injected over the anti-PD-L1 monoclonal antibody captured surface at a flow rate of 30 μL/min. The binding of the PD-L1 reagents to the captured monoclonal antibodies was monitored for 3 to 4 minutes while the dissociation of antibody bound PD-L1 reagents was monitored for 10 minutes in HBST running buffer (0.01 M HEPES pH 7.4, 0.15 M NaCl, 3 mM EDTA, 0.05% v/v Surfactant tween-20). Experiments were performed at either 25° C. or 37° C. Kinetic association (kₐ) and dissociation (kd) rate constants were determined by processing and fitting the data to a 1:1 binding model using Scrubber 2.0c curve fitting software. Binding dissociation equilibrium constants (KD) and dissociative half-lives (t_{1/2}) were then calculated from the kinetic rate constants as: KD (M)=kd/kₐ and t_{1/2} (min)=[In2/(60*kd)].

| Binder | Kd [nM] | koff [s⁻¹] | kon [M⁻¹ s⁻¹] | t1/2 [min] |
| --- | --- | --- | --- | --- |
| B1 | 26.3 | 0.0281 | 1.07e+06 | 0.4 |
| B2 | 134 | 0.0368 | 274000 | 0.3 |

The binders below were run against T2, Human PD-L1 Dimer (human, UniProt Q9NZQ7 19-239) (assay: SPR (Biacore), mAb captured, 37C).
T2 construct: also called hPD-L1 dimer; hPD-L1-hFc
T2 sequence (Q9NZQ7 19-239): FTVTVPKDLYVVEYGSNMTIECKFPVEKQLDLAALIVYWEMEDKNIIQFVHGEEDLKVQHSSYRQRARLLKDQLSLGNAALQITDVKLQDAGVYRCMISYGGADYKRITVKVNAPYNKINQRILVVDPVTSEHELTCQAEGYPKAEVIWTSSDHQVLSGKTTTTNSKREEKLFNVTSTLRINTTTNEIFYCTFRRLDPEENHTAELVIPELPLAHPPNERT
Protocol: as §1

| Binder | Kd [nM] | koff [s⁻¹] | kon [M⁻¹ s⁻¹] | t1/2 [min] |
| --- | --- | --- | --- | --- |
| B1 | 0.0376 | 0.000166 | 4.41e+06 | 70 |
| B2 | 0.417 | 0.000416 | 997000 | 28 |

What follows are binders tested against T3, recombinant human PD-L1 (amino acids 19-239 of NP_054862.1) with a C-terminal myc-myc-hexahistidine tag (human) (assay: SPR (Biacore), mAb captured, 37C).
T3 construct: also called hPD-L1-MMH; hPD-L1-MMH Monomer
T3 sequence (chain, as listed by the source limits assumed): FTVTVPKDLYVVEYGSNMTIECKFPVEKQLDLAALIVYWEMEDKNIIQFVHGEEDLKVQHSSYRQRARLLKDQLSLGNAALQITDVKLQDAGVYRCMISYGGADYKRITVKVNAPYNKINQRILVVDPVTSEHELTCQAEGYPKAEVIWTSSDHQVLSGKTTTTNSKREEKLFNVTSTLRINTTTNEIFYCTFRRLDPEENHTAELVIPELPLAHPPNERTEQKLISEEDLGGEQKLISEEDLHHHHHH
Protocol: as §1

| Binder | Kd [nM] | koff [s⁻¹] | kon [M⁻¹ s⁻¹] | t1/2 [min] |
| --- | --- | --- | --- | --- |
| B1 | 29.7 | 0.0314 | 1.06e+06 | 0.4 |
| B2 | 172 | 0.031 | 180000 | 0.4 |

Each binder was assayed against T4, recombinant human PD-L1 expressed with a C-terminal myc-myc-hexahistidine tag (hPD-L1-MMH) (human) (assay: SPR, captured mAb, 25 C).
T4 construct: Monomeric PD-L1 reagent; also called hPD-L1-MMH Monomer
Protocol: as §1

| Binder | Kd [nM] | koff [s⁻¹] | kon [M⁻¹ s⁻¹] | t1/2 [min] |
| --- | --- | --- | --- | --- |
| B3 | 12.7 | 0.00218 | 172000 | 5.3 |
| B4 | 60.6 | 0.00479 | 79000 | 2.4 |
| B5 | 0.492 | 0.00039 | 792000 | 30 |
| B6 | 3.5 | 0.00031 | 88600 | 37 |
| B7 | 0.321 | 0.000299 | 932000 | 39 |
| B8 | 165 | 0.0149 | 90200 | 0.8 |
| B9 | 9.51 | 0.000722 | 75900 | 16 |
| B10 | 16.3 | 0.0104 | 642000 | 1.1 |
| B11 | 75.8 | 0.134 | 1.77e+06 | 0.1 |
| B12 | 0.238 | 0.000223 | 937000 | 52 |
| B13 | 69.6 | 0.01 | 144000 | 1.2 |
| B14 | 0.0558 | 5.17e-05 | 925000 | 224 |
| B15 | 421 | 0.0395 | 94000 | 0.3 |
| B16 | 34.9 | 0.00359 | 103000 | 3.2 |
| B17 | 22.1 | 0.0582 | 2.64e+06 | 0.2 |
| B18 | 8.04 | 0.000383 | 47600 | 30 |

These binders were tested against T1, recombinant cynomolgus monkey PD-L1 … (assay: SPR (Biacore), mAb captured, 25C).
Protocol: as §1

| Binder | Kd [nM] | koff [s⁻¹] | kon [M⁻¹ s⁻¹] | t1/2 [min] |
| --- | --- | --- | --- | --- |
| B1 | 14.9 | 0.013 | 870000 | 0.9 |
| B2 | 47.7 | 0.00788 | 165000 | 1.5 |

What follows are binders tested against T2, Human PD-L1 Dimer (assay: SPR (Biacore), mAb captured, 25C).
Protocol: as §1

| Binder | Kd [nM] | koff [s⁻¹] | kon [M⁻¹ s⁻¹] | t1/2 [min] |
| --- | --- | --- | --- | --- |
| B1 | 0.0429 | 0.000144 | 3.36e+06 | 80 |
| B2 | 0.418 | 0.000309 | 739000 | 37 |
